# Test system: infectious human adenovirus 2 (HAdV-2, whole virus) (Human adenovirus 2)
# Experiment: ELONA
# Settings: SELEX buffer 20 mM Tris, 100 mM NaCl, 2.5 mM MgCl2, pH 7.2, room temperature
sequence,measurement,value
GGCTGCAGCTGAAGCACTGGTTTTGAGTCAAACCCAGACGATGGA [Apt-HAdV],Kd,0.9 nM

# From patent US20230184767
